Assay results from US12428627B2, “Mutant p-hydroxyphenylpyruvate dioxygenase, and coding nucleic acid and use thereof” (Qingdao Kingagroot Chemical Compound Co., Ltd., priority 2018, dated 2025).

Tested on: transgenic rice
Test: Herbicide resistance of transgenic rice (T0, T1 generation) sprayed with shuangzuocaotong
Assay type: in vivo
Text: • 1. Construction of overexpression vector • 1) Primers: primers were designed according to the selected restriction sites and the nucleotide sequence of the gene itself to amplify the three-site mutant HPPD (H141R/G342D/D370N) (OsHPPD3M). The designed primers were synthesized by Beijing Qingke Biotechnology Co., Ltd.: HPPD-F, […] ATGCCTCCCACT CCCACCC, HPPD-R, […] GGC. • 2) PCR amplification: the gene of interest was amplified by using the synthesized primer and Q5 DNA polymerase (NEB, New England Biolabs, Boston, USA). The amplified product was assayed by agarose gel electrophoresis, and the product was recovered according to operational instructions of the TIANquick Midi Purification kit. After the completion of the recovery, the concentration of extracted DNA was determined by Nanodrop. • 3) Construction of a rice overexpression vector: the rice overexpression vector pCAMBIA1301-OsHPPD3M was constructed with the recovered HPPD fragments and plasmid pCAMBIA1301 digested by KpnI and HindIII by using the HB-in Fusions™ seamless cloning kit of HanBio Biotechnology Co., Ltd., (Shanghai), and then transformed into the competent E. coli DH5α to obtain a positive clone; the positive clone was transformed into Agrobacterium after sequencing and restriction endonuclease digestion. • 2. […]

B1: H141R/G342D/D370N: three-site mutant rice HPPD (OsHPPD3M) (protein, listed as Oryza sativa)
chain: MPPTPTPTATTGAVSAAAAAGENAGFRLVGHRRFVRANPRSDRFQALAFHHVELWCADAASAAGRFAFALGAPLAARSDLSTGNSAHASLLLRSASVAFLFTAPYGGDHGVGADAATTASIPSFSPGAARRFAADHGLAVRAVALRVADAADAFRASVAAGARPAFQPADLGGGFGLAEVELYGDVVLRFVSHPDGADAPFLPGFEGVSNPGAVDYGLRRFDHVVGNVPELAPVAAYISGFTGFHEFAEFTAEDVGTAESGLNSVVLANNAETVLLPLNEPVHGTKRRSQIQTYLDHHGGPGVQHIALASDDVLGTLREMRARSAMGGFEFLAPPPPNYYDDVRRRAGDVLSEEQINECQELGVLVDRDNQGVLLQIFTKPVGDRPTFFLEMIQRIGCMEKDESGQEYQKGGCGGFGKGNFSELFKSIEEYEKSLEAKQAPTVQGS
modifications: The amino acid sequence of Wild-Type rice HPPD protein (OsHPPD _WT)
shuangzuocaotong rate tolerated, T0 generation plants (T0 plants expressing the mutant, spraying): 8-16 grams active ingredient per mu
shuangzuocaotong rate tolerated, T1 generation plants (T1 plants expressing the mutant, spraying): 32-64 grams active ingredient per mu
resistance multiple of transgenic rice to HPPD-inhibiting herbicide (overexpression, field rate of shuangzuocaotong 4 g a.i./mu): at least 4
